In patent US20250136687A1 (SHANDONG SIMCERE BIOPHARMACEUTICAL, published 2025):
Each block holds one binder with its values, some of them ahead of it.

Tests used:
[1] = molecular target: T1, human CD3 on the cell surface (Jurkat cells, expanded human T cells, Jurkat-Lucia NFAT cells, human PBMC) (human, UniProt P07766 23-207; P04234 22-171; P09693 23-182); test: cell-based or functional assay
[2] = molecular target: T1, human CD3 on the cell surface (Jurkat …); test: FACS, Jurkat cells
Description: (§1) The binding of the chimeric antibodies to CD3 on the cell surface was analyzed by detecting the binding of the antibodies to Jurkat cells and human T cells. Suspension cells Jurkat cells were scale-up cultured in T-75 cell culture flasks to the logarithmic growth phase, the supernatant of the medium was discarded by centrifugation, and the cell pellet was washed 2 times with PBS for later use. The expanded human T cells were washed 2 times with PBS for later use. After counting the cells in the previous step, the cell pellet was resuspended with [PBS+2% (w/w) BSA] blocking solution to 4×10⁶ cells/ml, and added to a 96-well FACS reaction plate at 50 μl/well, and then the chimeric antibody to be tested was added at 50 μl/well, and incubated at 4° C. for 1 h. The cells were centrifuged and washed 3 times with a PBS buffer. […] The cells were centrifuged and washed 5 times with PBS, and FACS (FACS Canto™, purchased from BD Company) was used for detection and result analysis. Data analysis was performed by software (CellQuest) to obtain the mean fluorescence […] (MFI) of the cells. And then software (GraphPad Prism8) was used for analysis, data fitting, and EC50 value calculation. The same method was used to simultaneously detect the binding of the chimeric antibodies to endogenous CD3 negative cells MOLT4 cells.

[3] = molecular target: T1, human CD3 on the cell surface (Jurkat …); test: FACS, expanded human T cells
Description: as §1

[4] = molecular target: T1, human CD3 on the cell surface (Jurkat …); test: FACS, expanded human T cells; remark: listed apart in the source
Description: as §1

[5] = molecular target: T2, monkey CD3ε protein (monkey, UniProt Q95LI5 22-117, limits assumed); test: ELISA, coated antigen
T2 sequence (looked up): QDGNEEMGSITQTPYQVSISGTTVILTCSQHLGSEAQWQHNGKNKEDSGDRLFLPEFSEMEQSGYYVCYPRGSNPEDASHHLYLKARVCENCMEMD

[6] = molecular target: T3, monkey CD3ε/δ-His (monkey, UniProt Q95LI5 22-117; Q95LI8 22-105); test: ELISA, coated antigen
T3 construct: Bought recombinant heterodimer with His tag

[7] = molecular target: T4, cynomolgus monkey CD3 on the surface of expanded monkey T cells (cynomolgus monkey, UniProt Q95LI5 22-198; Q95LI8 22-171; Q95LI7 23-181); test: FACS, expanded monkey T cells, 4 nM antibody
T4 construct: whole, on cells; Endogenous CD3 within the TCR-CD3 complex on T cells expanded from cynomolgus monkey PBMC
T4 sequence (Q95LI5 22-198, chain 1 of 3): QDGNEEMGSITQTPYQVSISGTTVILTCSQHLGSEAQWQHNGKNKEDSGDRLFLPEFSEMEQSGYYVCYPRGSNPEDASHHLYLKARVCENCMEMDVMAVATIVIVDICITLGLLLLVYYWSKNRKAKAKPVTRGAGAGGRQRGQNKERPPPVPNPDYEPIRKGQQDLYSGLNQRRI
T4 sequence (Q95LI8 22-171, chain 2 of 3): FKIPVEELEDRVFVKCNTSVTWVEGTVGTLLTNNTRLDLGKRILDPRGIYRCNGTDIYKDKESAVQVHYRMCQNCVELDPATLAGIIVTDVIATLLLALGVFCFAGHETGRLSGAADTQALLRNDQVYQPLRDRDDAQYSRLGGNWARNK
T4 sequence (Q95LI7 23-181, chain 3 of 3): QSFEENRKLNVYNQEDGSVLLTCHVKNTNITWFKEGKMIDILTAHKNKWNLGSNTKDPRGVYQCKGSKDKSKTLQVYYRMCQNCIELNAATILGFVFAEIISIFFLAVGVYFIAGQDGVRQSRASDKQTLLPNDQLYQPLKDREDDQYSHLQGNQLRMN
Description: as §1
(§2) FACS detection and data analysis were performed on the cryopreserved monkey T cells of Example 2.4 according to the method in Example 5.1.

[8] = molecular target: T5, human CD3ε/δ-His (human, UniProt P07766 23-126; P04234 22-105); test: SPR, antibody captured on Protein A chip
T5 construct: Bought recombinant heterodimer with His tag; also called human CD3ε/δ protein
T5 sequence (P07766 23-126, stated change not applied, form in doubt, chain 1 of 2): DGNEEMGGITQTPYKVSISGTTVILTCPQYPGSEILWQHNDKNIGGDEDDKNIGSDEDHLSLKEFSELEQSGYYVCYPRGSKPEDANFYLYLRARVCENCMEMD
T5 sequence (P04234 22-105, stated change not applied, form in doubt, chain 2 of 2): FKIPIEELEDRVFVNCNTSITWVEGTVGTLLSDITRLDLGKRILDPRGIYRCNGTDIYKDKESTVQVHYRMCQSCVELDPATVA

[9] = molecular target: T4, cynomolgus monkey CD3 on the surface of …; test: FACS, expanded monkey T cells
Description: as §1, §2

T1 sequence (P07766 23-207, chain 1 of 3): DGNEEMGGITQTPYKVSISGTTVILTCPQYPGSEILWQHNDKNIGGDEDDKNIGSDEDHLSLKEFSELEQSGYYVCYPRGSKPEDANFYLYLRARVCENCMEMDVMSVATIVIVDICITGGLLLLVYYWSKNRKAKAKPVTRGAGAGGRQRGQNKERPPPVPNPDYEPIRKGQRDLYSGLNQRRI
T1 sequence (P04234 22-171, chain 2 of 3): as the sequence (Q95LI8 22-171, chain 2 of 3) above, with V5I, K15N, V20I, T32S, N33D, N34I, A64T, N74S, L83V, R141H counted along it
T1 sequence (P09693 23-182, chain 3 of 3): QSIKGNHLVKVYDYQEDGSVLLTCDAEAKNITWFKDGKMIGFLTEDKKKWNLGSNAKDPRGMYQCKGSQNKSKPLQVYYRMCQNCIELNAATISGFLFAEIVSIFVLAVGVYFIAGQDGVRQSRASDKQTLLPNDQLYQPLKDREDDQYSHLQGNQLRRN

EC50 (nM), luciferase reporter, Jurkat-Lucia NFAT cells [1]: 23.7 nM | Maximum response value (RLU) [1]: 14500 RLU | EC50 [2]: 8.77 nM | MFI_Max [2]: 841 MFI | EC50 [3]: 10.4 nM | MFI_Max [3]: 1980 MFI | EC50 [4]: 5.71 nM | MFI_Max [4]: 5080 MFI | max-OD450 [5]: 0.06 OD450 | max-OD450 [6]: 0.05 OD450 | MFI at antibody concentration 4 nM [7]: 63 MFI
B1: F2B-hIgG1 (antibody, V domains shown)
VH: EVQLVESGGGLVQPGRSLRLSCAASGFTFDDYAMHWVRQAPGKGLEWVSGISWNSGSIGYADSVKGRFTISRDNAKNSLYLQMNSLRAEDTALYYCAKDSRGYGDYRLGGAYWGQGTLVTVSS
VL: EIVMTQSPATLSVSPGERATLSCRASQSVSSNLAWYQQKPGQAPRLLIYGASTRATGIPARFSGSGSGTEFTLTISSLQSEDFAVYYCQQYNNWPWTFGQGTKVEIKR
notes: also called F2Bs
binding result [5]: no binding (tested: 100 nM (initial concentration))

Kd [8]: 21.3 nM | koff [8]: 0.0327 s⁻¹ | kon [8]: 1.53e+06 M⁻¹ s⁻¹ | EC50 (nM), luciferase reporter, Jurkat-Lucia NFAT cells [1]: 1.74 nM | Maximum response value (RLU) [1]: 33400 RLU | EC50 [2]: 0.16 nM | MFI_Max [2]: 6340 MFI | EC50 [3]: 0.7 nM | MFI_Max [3]: 12300 MFI | EC50 [4]: 0.99 nM | MFI_Max [4]: 26500 MFI | EC50 [5]: 0.128 nM | max-OD450 [5]: 2.96 OD450 | EC50 [6]: 0.0754 nM | max-OD450 [6]: 2.52 OD450 | EC50 [9]: 0.63 nM | MFI_Max [9]: 24100 MFI | MFI at antibody concentration 4 nM [7]: 41000 MFI
B2: 40G5c-hIgG1 (antibody, V domains shown)
VH: EVQLVQSGAEVKKPGASVKVSCKASGYTFTNYYIHWVRQAPGQGLEWIGWIYPGDGNTKYNEKFKGRATLTADTSTSTAYLELSSLRSEDTAVYYCARDSYSNYYFDYWGQGTLVTVSS
VL: DIVMTQSPDSLAVSLGERATINCKSSQSLLNSRTRKNYLAWYQQKPGQPPKLLIYWASTRESGVPDRFSGSGSGTDFTLTISSLQAEDVAVYYCTQSFILRTFGQGTKVEIKR
